In assay [1] the test system is SGK1 expression in naïve CD4+ T cells. Nature of the assay: SGK1 mRNA expression during T cell / TH17 differentiation. The format is cell-based. On the procedure:
Naïve CD4+ T cells were cultured in TH17 differentiating condition (TGF-β plus IL-6) for 96 hours.
The correlation between the SGK1 expression level during T cell differentiation was previously unknown, so SGK1 mRNA level was first measured under different conditions during T cell differentiation (FIG. 1). […] IL-23, an IL-12 family cytokine, is essential for enhancing generation of TH17 cells.
The time dependent expression of SGK1 during TH17 differentiation was further examined by culturing naïve CD4+ T cells under TH17 differentiating conditions (TGF-β plus IL-6) for 96 hours. After 48 hours, TH17 cells were supplemented with IL-23 until the end of the culture period.

Another assay deals with TH17 cells. Nature of the assay: IL-23 dependent expansion of differentiated TH17 cells, intracellular cytokine staining for IL-17. It is filed as cell-based, mice. On the procedure: Naïve CD4+ T cells were sorted from wild-type and SGK1-deficient mice and cultured under TH17 differentiation conditions. After a first round of stimulation, the cells were rested for two days in cytokine free medium. Two days later, cells were activated in the presence or absence of IL-23, and intracellular cytokine staining was performed for IL-17.
(§1) It has been shown that exposure of IL-23 is essential for expanding and stabilizing TH17 cells. […] It was next tested whether SGK1 is essential for IL-23-dependent expansion of TH17 cells. Naïve CD4+ T cells were sorted from wild-type and SGK1-deficient mice and were cultured under TH17 differentiation conditions, as described herein. After a first round of stimulation, cells were rested for two days in a cytokine-free medium. Two days later, cells were activated in the presence or absence of IL-23, and intracellular cytokine staining was performed for IL-17 expression. […] It was further tested whether IL-23 can expand sorted memory TH17 cells. Both wild-type and SGK1-deficient CD4^+CD62L^− cells were sorted and cultured with either anti-CD3 alone or anti-CD3 plus IL-23.

Assay [2] has as its system CD4+CD62L- cells (memory CD4 cells). Nature of the assay: IL-17A and IL-17F expression in sorted memory CD4+CD62L- cells. It is filed as cell-based, mice. The following applies: anti-CD3 plus IL-23 vs anti-CD3 alone (FIG. 5). How it is done:
Wild-type and SGK1-deficient CD4+CD62L-cells (memory CD4 cells) were sorted and cultured with either anti-CD3 alone or anti-CD3 plus IL-23.
as §1

As to “IL-6: STAT3-activating cytokine used with TGF-β for TH17 differentiation”, in assay [1] (IL-6 added together with TGF-β (FIG. 1)), the “expression of SGK1 (mRNA)” value is given as “further increased the expression SGK1”.

Consider TGF-β, for which the “expression level of SGK1 (mRNA)” value in assay [1] (T cell differentiation, TGF-β (FIG. 1)) is “upregulate the expression level of SGK1”.

B1: IL-23: an IL-12 family cytokine, essential for enhancing generation of TH17 cells (protein, UniProt Q9NPF7 20-189; P29460 23-328, looked up)
Interleukin-23 subunit alpha: RAVPGGSSPAWTQCQQLSQKLCTLAWSAHPLVGHMDLREEGDEETTNDVPHIQCGDGCDPQGLRDNSQFCLQRIHQGLIFYEKLLGSDIFTGEPSLLPDSPVGQLHASLLGLSQLLQPEGHHWETQQIPSLSPSQPWQRLLLRFKILRSLQAFVAVAARVFAHGAATLSP
Interleukin-12 subunit beta: IWELKKDVYVVELDWYPDAPGEMVVLTCDTPEEDGITWTLDQSSEVLGSGKTLTIQVKEFGDAGQYTCHKGGEVLSHSLLLLHKKEDGIWSTDILKDQKEPKNKTFLRCEAKNYSGRFTCWWLTTISTDLTFSVKSSRGSSDPQGVTCGAATLSAERVRGDNKEYEYSVECQEDSACPAAEESLPIEVMVDAVHKLKYENYTSSFFIRDIIKPDPPKNLQLKPLKNSRQVEVSWEYPDTWSTPHSYFSLTFCVQVQGKSKREKKDRVFTDKTSATVICRKNASISVRAQDRYYSSSWSEWASVPCS
Regarding B1, the “expression of SGK1 (mRNA)” value in assay [1] (IL-23, further to TGF-β and IL-6 (FIG. 1)) is reported as “further enhances the expression of SGK1”. Also, the “time dependent expression of SGK1” value in assay [1] (TH17 cells supplemented with IL-23 after 48 hours (FIG. 2)) is given as “further induced SGK1 expression”. The “IL-17 expressing TH17 cells after re-activation with IL-23” value with TH17 cells (SGK1-deficient TH17 cells, ~4% in absence of IL-23) is recorded as around 1%; in the assay on TH17 cells (wild-type TH17 cells, 11.5% in absence of IL-23), 13%. In addition, the “expression of IL-17A and IL-17F” value in assay [2] (SGK1-deficient memory cells) was “defective in inducing expression of IL-17A and IL-17F”; in assay [2] (wild-type memory cells), “clearly enhanced the expression of IL-17A and IL-17F”.

Source of the values: patent US20130017188A1, “MODULATION OF SGK1 EXPRESSION IN TH17 CELLS TO MODULATE TH17-MEDIATED IMMUNE RESPONSES” (THE BRIGHAM AND WOMEN'S HOSPITAL, INC., priority 2009, published 2013).
